Measurements from patent publication US20120020985A1 (MEDICAL RESEARCH COUNCIL, published 2012).

How the values were obtained:
Assay in all cases: ELISA, receptor coated at 2 ug/ml, streptavidin-HRP, A405
rhIL-17RD (Sef) = target: T1, rhIL-17RD (Sef) (human, UniProt Q8NFM7 27-299, limits assumed)
T1 construct: Bought from R&D Systems, catalog 2275-IL; also called human IL-17RD; IL-17D receptor
T1 sequence (looked up): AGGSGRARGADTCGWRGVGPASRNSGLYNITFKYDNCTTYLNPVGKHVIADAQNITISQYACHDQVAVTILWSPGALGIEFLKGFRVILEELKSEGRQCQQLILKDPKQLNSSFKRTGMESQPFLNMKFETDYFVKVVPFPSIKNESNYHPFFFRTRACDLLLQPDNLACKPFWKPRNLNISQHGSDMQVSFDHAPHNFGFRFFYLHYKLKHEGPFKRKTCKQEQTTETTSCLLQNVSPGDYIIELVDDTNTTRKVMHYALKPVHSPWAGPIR
Protocol: (§1) In brief, ELISA plates were coated with IL-17R-family members; IL-17RA, IL-17BR, IL-17RC or IL-17RD, or IL-13Rα control, at 2 μg/ml, incubated overnight at 4° C., washed in PBS/0.05% tween and blocked in PBS/10% FCS at room temperature for 4 hrs. Biotinylated D9.2 binding was detected using streptavidin-HRP and ELISA development solution and measuring absorbance at 405 nm.
(§2) ELISA plates were coated with IL-17R-family members; IL-17RA, IL-17BR, IL-17RC, or IL-17RD, or IL-13Rα control (R&D Systems) at 2 μg/ml overnight at 4° C. before washing in PBS/0.05% tween and blocking in PBS/10% FCS at room temperature for 4 hrs. Biotinylated D9.2 was added at 1 μg/ml in PBS/10% FCS and incubated overnight at 4° C. Plates were then washed before streptavidin-HRP was added and incubated for 1 hr at room temperature. Plates were then washed a final time before adding ELISA development solution and measuring the absorbance at 405 nm.

rmIL-17RD (Sef) = target: T2, rmIL-17RD (Sef) (mouse, UniProt Q8JZL1 27-299, limits assumed)
T2 construct: Bought from R&D Systems, catalog 2276-ML; also called mouse IL-17RD; IL-17D receptor
T2 sequence (looked up): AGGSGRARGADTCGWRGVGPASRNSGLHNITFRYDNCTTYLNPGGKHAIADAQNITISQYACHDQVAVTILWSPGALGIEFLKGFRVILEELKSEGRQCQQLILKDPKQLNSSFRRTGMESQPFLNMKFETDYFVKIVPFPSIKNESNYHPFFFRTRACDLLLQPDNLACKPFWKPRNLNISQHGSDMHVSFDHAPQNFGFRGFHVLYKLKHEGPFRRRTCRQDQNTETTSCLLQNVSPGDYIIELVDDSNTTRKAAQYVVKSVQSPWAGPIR
Protocol: as §1, §2

rhIL-17RA-Fc = target: T3, rhIL-17RA-Fc (human, UniProt Q96F46 33-320)
T3 construct: Bought from R&D Systems, catalog 177-IR; also called human IL-17RA; IL-17A receptor; not shown: Fc portion, not described
T3 sequence (looked up): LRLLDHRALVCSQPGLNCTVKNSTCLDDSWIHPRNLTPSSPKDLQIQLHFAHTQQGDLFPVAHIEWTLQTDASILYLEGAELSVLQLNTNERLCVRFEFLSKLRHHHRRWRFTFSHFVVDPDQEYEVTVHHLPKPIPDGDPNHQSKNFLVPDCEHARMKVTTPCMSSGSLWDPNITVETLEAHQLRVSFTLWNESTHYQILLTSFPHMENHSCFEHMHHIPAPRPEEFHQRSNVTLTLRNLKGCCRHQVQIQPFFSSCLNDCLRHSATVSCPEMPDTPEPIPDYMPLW
Protocol: as §1, §2

rmIL-17RA-Fc = target: T4, rmIL-17RA-Fc (mouse, UniProt Q60943 32-322)
T4 construct: Bought from R&D Systems, catalog 4481-MR; also called mouse IL-17RA; IL-17A receptor; not shown: Fc portion, not described
T4 sequence (looked up): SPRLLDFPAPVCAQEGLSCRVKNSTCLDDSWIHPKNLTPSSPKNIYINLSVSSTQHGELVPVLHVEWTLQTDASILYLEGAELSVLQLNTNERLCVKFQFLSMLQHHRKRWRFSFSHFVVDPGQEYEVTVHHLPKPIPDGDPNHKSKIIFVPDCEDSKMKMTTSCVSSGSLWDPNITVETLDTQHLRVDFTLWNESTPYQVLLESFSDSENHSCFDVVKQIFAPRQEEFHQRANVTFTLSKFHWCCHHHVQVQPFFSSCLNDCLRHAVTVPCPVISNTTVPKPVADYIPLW
Protocol: as §1, §2

rhIL-17RC = target: T5, rhIL-17RC (human, UniProt Q8NAC3-2 21-467, limits assumed)
T5 construct: Bought from R&D Systems, catalog 2269-IL; also called human IL-17RC; IL-17C receptor
T5 sequence (looked up): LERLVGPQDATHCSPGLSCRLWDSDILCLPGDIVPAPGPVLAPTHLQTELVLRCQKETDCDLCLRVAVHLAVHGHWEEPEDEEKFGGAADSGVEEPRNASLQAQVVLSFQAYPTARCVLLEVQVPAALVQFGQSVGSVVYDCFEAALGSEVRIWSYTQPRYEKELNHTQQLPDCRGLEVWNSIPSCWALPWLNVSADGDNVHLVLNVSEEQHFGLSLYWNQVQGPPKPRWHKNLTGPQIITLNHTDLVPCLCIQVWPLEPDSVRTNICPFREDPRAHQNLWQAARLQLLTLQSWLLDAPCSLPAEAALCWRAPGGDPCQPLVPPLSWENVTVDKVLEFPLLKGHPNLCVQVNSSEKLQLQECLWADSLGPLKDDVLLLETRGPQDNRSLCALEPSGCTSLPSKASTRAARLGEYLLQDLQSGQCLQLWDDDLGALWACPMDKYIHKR
Protocol: as §1, §2

rmIL-17RC = target: T6, rmIL-17RC (mouse, UniProt Q8K4C2 22-464, limits assumed)
T6 construct: Bought from R&D Systems, catalog 2270-ML; also called mouse IL-17RC; IL-17C receptor
T6 sequence (looked up): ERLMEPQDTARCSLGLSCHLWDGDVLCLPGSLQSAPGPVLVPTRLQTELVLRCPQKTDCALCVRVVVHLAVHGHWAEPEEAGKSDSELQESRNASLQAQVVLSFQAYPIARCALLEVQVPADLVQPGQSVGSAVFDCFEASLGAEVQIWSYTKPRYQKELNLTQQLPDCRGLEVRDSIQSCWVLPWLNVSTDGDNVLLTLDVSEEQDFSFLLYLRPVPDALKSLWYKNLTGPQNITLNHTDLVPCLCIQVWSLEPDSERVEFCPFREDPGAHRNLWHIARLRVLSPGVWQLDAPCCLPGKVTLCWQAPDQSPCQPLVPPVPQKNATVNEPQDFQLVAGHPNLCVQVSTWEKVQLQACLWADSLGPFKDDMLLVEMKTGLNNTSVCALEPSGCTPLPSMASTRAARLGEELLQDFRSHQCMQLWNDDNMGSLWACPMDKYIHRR
Protocol: as §1, §2

B1: anti-IL-17BR clone D9.2 (antibody, V domains shown)
VH: QVQLQQPGAELVRPGASVKLSCKTSGYTFISYWMNWVKQGGPEQGLEWIGRIDPYDSEIQYNQKFKDKAILTVDKSSSAAYMQLISLTSEDSAVYYCARSGGFDWFAYWGQGTLVTVS
VL: DIQMTQSPASLSVSVGETVTITCRASENINSNLAWYQQKKGKSPQLLVYDVTNLADGVPSRFSGSGSGTQYSLKINSLQSEDFGSYYCQHFWRPPYTFGGGTNLEIK
notes: Mouse monoclonal from a hybridoma; heavy chain amplified with an IgG1 constant region primer and light chain with a kappa primer (mouse IgG1 kappa); also called mouse monoclonal antibody D9.2; D9.2 antibody clone
B1: no binding (tested: 1 ug/ml biotinylated D9.2) (rhIL-17RD (Sef)); no binding (tested: 1 ug/ml biotinylated D9.2) (rmIL-17RD (Sef)); no binding (tested: 1 ug/ml biotinylated D9.2) (rhIL-17RA-Fc). B1: no binding (tested: 1 ug/ml biotinylated D9.2) (rmIL-17RA-Fc); no binding (tested: 1 ug/ml biotinylated D9.2) (rhIL-17RC); no binding (tested: 1 ug/ml biotinylated D9.2) (rmIL-17RC).
